# From the supplement of paper PMC9170038
# System: MS2 coat protein
# Test: apparent KD of MS2 coat protein; higher = weaker reporter binding
# Details: Eterna round: R107
# Outline: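 On-chip transcription from Illumina sequencing clusters produced the designed RNA switches. These were titrated with SNAP-549-labelled MS2 coat protein (twofold steps, 0.7 or 1.5 nM to 3 µM) in 100 mM Tris-HCl pH 7.5, 80 mM KCl, 4 mM MgCl2, with or without constant ligand. The apparent KD given is the per-design median of normalised cluster binding-curve fits.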
# [1] = input ligand: theophylline 20 uM
# [2] = input ligand: tryptophan 2.4 mM
# [3] = input ligand: theophylline 2 mM
sequence,measurement,setting,value
CAAGCACCAACCGAUACCAGCUUAGUAGUAUGCUCAUUAAACAUGAGGAUCACCCAUGUGAGCCCUUGGCAGCGGAUUUCCCUGC [theeternabot_exclusion_MS2_Theo_B_12],apparent KD of MS2 coat protein,input ligand: arginine 13.2 mM,14.5 nM
same,apparent KD of MS2 coat protein,[1],18.3 nM
same,apparent KD of MS2 coat protein,[2],13.5 nM
CACUACAUGAGGAUCACCCAUGUCUUCCGACGAGGACCGGUACGGCCGCCACUCGAACCUCCAACUAAUACCUCAACCGUCUGAU [theeternabot_sameState_MS2_Trp_A_25],apparent KD of MS2 coat protein,input ligand: arginine 13.2 mM,36.5 nM
same,apparent KD of MS2 coat protein,[1],110 nM
same,apparent KD of MS2 coat protein,[3],101 nM
CAGAGACAUGAGGAUCACCCAUGUUGAGAUACCAGCUUGGUAUCGAGCCCUUGGCAGCUCGCCCAUCGUCUAUAUCAGCCUGAGC [theeternabot_sameState_MS2_Theo_A_40],apparent KD of MS2 coat protein,input ligand: arginine 13.2 mM,17 nM
same,apparent KD of MS2 coat protein,[1],18.9 nM
same,apparent KD of MS2 coat protein,[2],16.8 nM
CAGGUGGACUGAAGGAGCGAGUCAGGGACUUACAUGAGGAUCACCCAUGUCACGGUCGUCACUCAGGUAGGUCGCAGUUCGCCUC [Diinan],apparent KD of MS2 coat protein,input ligand: arginine 13.2 mM,113 nM
same,apparent KD of MS2 coat protein,input ligand: none,188 nM
same,apparent KD of MS2 coat protein,[1],279 nM
same,apparent KD of MS2 coat protein,[3],628 nM
same,apparent KD of MS2 coat protein,[2],231 nM
CAGUCAGUCAGUCAAUGAGUGAGGCAUGAAGGAGCGUGGGAAACCACAGGUAGGUCGCAUGCGGAACAUGAGGAUCACCCAUGUU [SSArg A #4],apparent KD of MS2 coat protein,input ligand: arginine 13.2 mM,31.9 nM
same,apparent KD of MS2 coat protein,input ligand: none,27.2 nM
same,apparent KD of MS2 coat protein,[1],26.2 nM
same,apparent KD of MS2 coat protein,[3],26.8 nM
same,apparent KD of MS2 coat protein,[2],27.7 nM
CAGUCUCUAGCGGCCGCCACUGUUCUGCUGGUGCUGCUGAACGAACAUGAGGAUCACCCAUGUCUCAGGACCGGGCUUCAGACUC [theeternabot_sameState_MS2_Trp_B_44],apparent KD of MS2 coat protein,input ligand: arginine 13.2 mM,22.4 nM
same,apparent KD of MS2 coat protein,[1],30.4 nM
same,apparent KD of MS2 coat protein,[3],33.3 nM
CAUACUUUAGUAUGUUAUGUGGACAGUGAUACCAGAUACGAAAGUAUCCCUUGGCAGCACAACAUGAGGAUCACCCAUGUAUUUU [Theophylline A 4],apparent KD of MS2 coat protein,input ligand: arginine 13.2 mM,25.8 nM
same,apparent KD of MS2 coat protein,[1],22.2 nM
same,apparent KD of MS2 coat protein,[2],21.5 nM
CAUGAAGUAACUGAUACCAGUGUACACAUGAGGAUCACCCAUGUGUUGGGUUUUGUUGUACACCCUUGGCAGCAGAAUCUUUAUG [AstrosExyTheB#8],apparent KD of MS2 coat protein,input ligand: arginine 13.2 mM,42.4 nM
same,apparent KD of MS2 coat protein,[1],84.3 nM
same,apparent KD of MS2 coat protein,[2],51.2 nM
CAUGAUAAGUUGGAUACCAGCAUAUGGAACAACAUGAGGAUCACCCAUGUCAAAUGACAUUGCCCUUGGCAGCCACCUACUGUCA [theeternabot_sameState_MS2_Theo_B_5],apparent KD of MS2 coat protein,input ligand: arginine 13.2 mM,21.2 nM
same,apparent KD of MS2 coat protein,[1],19.1 nM
same,apparent KD of MS2 coat protein,[2],17.9 nM
CCGCACAUGAGGAUCACCCAUGUCCGGGUUCGAGGACCGGUACGGCCGCCACUCGGACAUGUGCGCCCUUCAUGCACUGUAUAAA [Macetius],apparent KD of MS2 coat protein,input ligand: arginine 13.2 mM,38.9 nM
same,apparent KD of MS2 coat protein,[1],158 nM
same,apparent KD of MS2 coat protein,[3],239 nM
CCGCCUGCCUCACAUGAGGAUCACCCAUGUCGAGGACCGGUACGGCCGCCACUCGUCGUCGGUAAUACAGGCAUUGAAUAAUAUA [Vetire],apparent KD of MS2 coat protein,input ligand: arginine 13.2 mM,12.1 nM
same,apparent KD of MS2 coat protein,[1],14.8 nM
same,apparent KD of MS2 coat protein,[3],12.1 nM
CCGGCAUGUCGAAGGAGCGUCACAUGAGGAUCACCCAUGUACAUGAGGAUCACCCAUGUGUGACAGGUAGGUCGCGGCGGCCAGG [Exclusion Arginine B GF7],apparent KD of MS2 coat protein,input ligand: arginine 13.2 mM,108 nM
same,apparent KD of MS2 coat protein,input ligand: none,140 nM
same,apparent KD of MS2 coat protein,[1],178 nM
same,apparent KD of MS2 coat protein,[3],197 nM
same,apparent KD of MS2 coat protein,[2],158 nM
CCGGGCCCGGGAGACCGGGCCCGGACUGAAGGAGCGGGAAUAAACCCAGGUAGGUCGCAGAGAUCCACAUGAGGAUCACCCAUGU [!0.U],apparent KD of MS2 coat protein,input ligand: arginine 13.2 mM,133 nM
same,apparent KD of MS2 coat protein,input ligand: none,54.5 nM
same,apparent KD of MS2 coat protein,[1],51.7 nM
same,apparent KD of MS2 coat protein,[3],36.5 nM
same,apparent KD of MS2 coat protein,[2],36.8 nM
CCGGUUAGGACGGCCGCCACUGUGGCUACGGUACAUGAGGAUCACCCAUGUUUGUGGUUGAUCUACAGGACCGGGUCCUGACACG [Eronri],apparent KD of MS2 coat protein,input ligand: arginine 13.2 mM,124 nM
same,apparent KD of MS2 coat protein,input ligand: none,247 nM
same,apparent KD of MS2 coat protein,[1],1210 nM
same,apparent KD of MS2 coat protein,[3],806 nM
same,apparent KD of MS2 coat protein,[2],247 nM
CCUAUGCAGUCGGCCGCCACUGAAAACAGCCUCAAAAUAAAUAUAACAUGAGGAUCACCCAUGUACAGGACCGGGACUGUAUAGG [Ex Tryptophan B 11],apparent KD of MS2 coat protein,input ligand: arginine 13.2 mM,81 nM
same,apparent KD of MS2 coat protein,[1],200 nM
same,apparent KD of MS2 coat protein,[3],180 nM
CCUAUGCAGUCGGCCGCCACUGUACAUGAGGAUCACCCAUGUUCCAAAAUAAAAGGAACUGAAAUCAGGACCGGGACUGUAUAGG [Ex Tryptophan B 1],apparent KD of MS2 coat protein,input ligand: arginine 13.2 mM,29.4 nM
same,apparent KD of MS2 coat protein,input ligand: none,33.3 nM
same,apparent KD of MS2 coat protein,[1],37.2 nM
same,apparent KD of MS2 coat protein,[3],39 nM
same,apparent KD of MS2 coat protein,[2],32.6 nM
CCUCAAUCGUCGGCCGCCACUGGAUCAUGCGGAUACAUGAGGAUCACCCAUGUGGGUGUGGUACGCAGGACCGGGACAAGACCCG [#15 Same State - Tryptophan B],apparent KD of MS2 coat protein,input ligand: arginine 13.2 mM,164 nM
same,apparent KD of MS2 coat protein,[1],579 nM
same,apparent KD of MS2 coat protein,[3],1030 nM
CCUGCGUUUCUUUUCUUUCGCAGGAAUGAUACCAGUAGGGAAACCUACCCUUGGCAGCAUGGGUAACAUGAGGAUCACCCAUGUU [SSThA NP+V+V2 #5 Same Structure],apparent KD of MS2 coat protein,input ligand: arginine 13.2 mM,93.2 nM
same,apparent KD of MS2 coat protein,[1],392 nM
same,apparent KD of MS2 coat protein,[2],343 nM
